Series [1] can be described thus: Stability of protein in the cream-based formulation (SDS-PAGE). The series is classed as physicochemical. The following applies: in the cream formulations, stored at room temperature. As for the experimental part:
Stability is a major issue in incorporating recombinant proteins as active ingredients into a commercial product. […] Samples were then prepared for analysis and loaded onto an SDS-PAGE gel.
The samples were: Lane 1 contains TRIM Family Member protein that was stored in Phosphate Buffered Saline (PBS) at 4° C. for 13 months. Lane 2-4 are samples of the cream-based formulation containing the TRIM Family Member protein. The arrows indicate the band corresponding to the molecular weight of TRIM Family Member protein in each of the samples in Lanes 2-4. […] This is indicated by the lack of doublet bands in the cream samples. Thus, these formulations for the Emulsifier and Hydrogel are viable systems to maintain the activity of the active ingredient.

Series [2] is described as follows: Isoelectric point / net charge of TRIM family member. The series is classed as physicochemical.

For “TRIM Family Member protein: TRIM-family member protein, MG53, active ingredient of the cream”, the “activity of the active ingredient on storage” value in series [1] is “remains active for over one year”. This substance yielded an isoelectric point in series [2] of 6.08. In addition, in series [2] (physiological pH of blood (7.35)), the net charge entry is “negative”.

(Values after patent publication US12357670B2, “Topical cream-based cosmetic and wound healing formulations and methods of use” (Eir Pharmaceuticals, LLC, priority 2018, dated 2025).)
